Test: soluble on expression in E. coli; label from the status in PepcDB or PDB records

## MLEEPFFPYQSLASDLLAFLPEDSTDGSHDLSHIHRVWMNVRRLQDKEGGDLEALLAATLLHDCVAVEKNSPLRSQASTLSANKAASILQRMGWPAPRIELVAHAVQAHSFSAGVEPLTLEARILQDSDRLDAIGMIGVARCFYIAGRMGSALYDITNPTAIGRPYQDKRFTIEHFHTKLLSLASGFQTVEGARLAAVRHARLKDFLDGFMEEIGAPDLEHHHHHH
  soluble on expression in E. coli: soluble

## MGSDKIHHHHHHMIKHHPHAELLQAHAQGELPLSMSMAVAAHCALCQECQNQIAKLTEQAAKLAFVSSSDDPVQHNASNEIDVVDNDPWQQMLSNIMALPESTMSEPYIESSVTVSHRNIRYQIPRVFRQHIALPWQQIGKVSRMRFDIDEKNTRASLLYIEALGEIPQHTHKGFELTLLLSGEFSDSTGNYVVGDFIILDGNTQHSPTTQTGCLCYTVLDAPLYFTKGISKLLNPIGELIY
  soluble on expression in E. coli: not soluble

## MVVLYNECLKNHAVSLGGHALDGCGEFTPKSTTILTDPPSLRCDACGCHRNFHRRSPSDGFSQHRSPPSPLQLQPLAPVPNLLLSLSSGFFGPSDQEVKNKFTVERDVRKTAMIKKHKRTKFTAEQKVKMRGFAERAGWKINGWDEKWVREFCSEVGIERKVLKVWIHNNKYFNNGRSRDTTSSMSLNLKL
  soluble on expression in E. coli: soluble

## MGSDKIHHHHHHMSQNVYIGMTLKPWPILLDHYSMSYDGRVSVKSIGYGMHLFKYHGCIMLATRTKVDSTMAYDTITVSAPWWAKDKLHSFLEDTRGDISTEPKVNIFEETEWCRYGILKSSGFSELVLDEGFKQELMGEVDNFASRGESVVSKLTILLHGKTGTGKTGIARALAVEYHRDLYILNLSTVNDATIHKAIRKVPPGAMLLIEDCDCVKATVSRTAESNADNPPLTLGGVLNALDGIIPLDDCLVIMTTNHPDNLDPALIRKGRVDVSIEVPLISAKQVNEDYFERFGAVLNRTEPLLGCEVYELHRRANLRYGVCCKPV
  soluble on expression in E. coli: not soluble

## QGTDQYTILANRIANAVEQYRSQRALDASRERLSLFIDKSPLGVIEWDESFEVVQVNEKGEEILRRGESALAGKGFETLVPDSALDAVEETITALQEGSGGYYTVLDIETGDGEEIVCEWHNRIIREDGETVAIFSQFQEIT
  soluble on expression in E. coli: not soluble

## MGSDKIHHHHHHMRKLKREAYKLNNIKMLQQDVKYSEEVIEAEFSVEGYSLIDYKRSYTLSRALVNGKWIVYDGNRLESSQKIKEFEICEDFYHESVKAWPNKEKYSRLFTNIKLNEDDQLKVISKKISKSILIHDVKECREEKVVNYVEYNDLNFSYAGNPKDIPSIVEYLRASQSQLTSPSRQVLTESGRLTFILDSEIVASIFHYVLRNFLNGNSPKLKLNEKISSEITIYDNPLNSFSSSFSVFDDEGVKTKKKEIIGDGIITNYLGTLTSKYGEAGNARGILPKPDYFSLEVKQGDWSLNELIDESRGAYIAMGVKKSELIRNSIRITPRSVVKIGQGQIFFREIAIPLQELVTIDAVTRENRGVFIDEEHGGVTPYVRMKVRAILY
  soluble on expression in E. coli: not soluble

## MRIVTAAVMASTLAVSSLSHAAEVGSGDNWHPGEELTQRSTQSHMFDGISLTEHQRQQMRDLMQQARHEQPPVNVSELETMHRLVTAENFDENAVRAQAEKMANEQIARQVEMAKVRNQMYRLLTPEQQAVLNEKHQQRMEQLRDVTQWQKSSSLKLLSSSNSRSQLEHHHHHH
  soluble on expression in E. coli: soluble

## MMNTSDNHALGDFLRARRQRLDPATFGFPAGRRRTPGLRREEVAQLASISPTWYTWLEQGRGGAPSREVLERIARGLRLTTPEREHLFILAFGHPPQTRLTVTDDMTPRLQRVLDAFTIPAIIRTASWDVIAWNAPAARVLTDYSQLPLAERNVLRRLFTRPEARCTLEDWQRVGQLIVNAFRADVTRMGATKETDQLIAELSQQSVEFARFWQSHDVAGHGEGYKRINHPEMGPLDLEFTSFAVEGRPDLSLLVFNPATTESQRKIHGLLQGAGSAPEES
  soluble on expression in E. coli: soluble

## MHRYLWQQADGKRHVYDTTRHRIQAEHSFTALCGETVIPRTERGDLTAGLWFDGECPVCTIALAKALGWPMRELADLAHRFTWSPELLARLAEILHCTSGEVAELTGARTVDT
  soluble on expression in E. coli: not soluble

## MGSDKIHHHHHHMHMRVLIINTSERIGGAAIAANRLMEALKNNGIKTKMLVRDKQTDQISVVELKKSWWKVWQFIWERVVIWQANHFKKHNLFAVDIANTGTNITALPEFTQADVIHLHWINQGMLSLTDIRRIIQSGKPIVWTMHDMWPFTGICHYAGDCDKYATQCHNCPQLYKGSRKDIAYRTFQKKKKLFEGAQITFVACSRWLESLAKKSDLIKGQTITNIPNAINTNLFKPRDKKQAREKCHLPQDKKLLLFGSVKITDKRKGIDYLVSACKQIASSYPDFSKELGVVVFGNQAEQYASLFPFPIYPMNYVSNEKELVDIYNAVDLYVTPSLQDNLPNTIVEAMACGIPCIGFNVGGIPQMIDHLHNGYVAEYQSSKDLANGIHWALTEGEYESLSEEACRKAVSSYSESTIAKKYVEIYNKITGNHA
  soluble on expression in E. coli: not soluble

## MGSDKIHHHHHHMTRSVLVDLDAVLSIARLGSFRAAALDLGMSTTALSNAIAKLEQRLGVRLFNRTTRSVSLTDAGKTFAERVGPAMMDIHDAMLSVQSLQETPAGTLRINAFATAAREVMEPLILSFMQRYPQVHIDLVTEGRIVDIVAAGFDLGLRPADLVPADMIAVSLGLKRSNAVVASPDFLRIHGIPTVPADLYRFRCIRARLPNNALFRWKFEKDGDAMQIDVQGSITLDESSLVRIAAQNGVGLGYVMEADVREDIAAGRLVRVLEDWTPALAPLALYYPGRKNPPAAFSAFIQAARNFANGG
  soluble on expression in E. coli: not soluble

## MAHHHHHHMYFLGEERHFRVLSLSFGVRGLQGSVTSEAAKIQTQMALQQTAYSACSRKVHCVSKHYLDDPFVHFFSRDMTIVNSPLMNRGTWLRTVAIERSVLSFARNWSADGPLQVISFGSGVDTLYFRLKKDHSEVNIVRYIELDFPDLVAEKQRVIEKTERLNQLVGPEYELVPCDLQKPDELREILKRVARNDVPTVLLAEMVFVYLEERTTTAILELTLNDVLKRDMCVLLIAYDAIRPNDRFGEVMVNSLASSGVPLRGIKELPTPEAHAERCKRVGLKSVMATSMRQLYLSVPQETQEWLKKLEMVDDWDEWCIMHDHYCFVLATNKAEALPTIF
  soluble on expression in E. coli: not soluble

## MDANEFHWLMDMLESVEVGLVVLDLDFHVQAWNGFMEHHSGITARQIRDKVLFEVFPDIPEAWLTRKVDAVAMLNTRAFTSWEQRPYLFKFRNTRPITGTEEYMFQNLTISPITAPNGEVEKVCLLVYDVTEFASSKRALERANEQLAKLSMTDRLTGLLNRGTWENLVDAEYERFRRYGQATSLVMFDIDHFKPVNDTYGHLAGDEVIRHTADVTRNNIRQSDSAGRYGGEEFGIILPETDAESARVICERIREAIEKSTVSTSAGDIQYTVSMGIAQLTETPENYMQWMQKADEALYKAKESGRNKVVVSLEHHHHHH
  soluble on expression in E. coli: soluble

## MGSDKIHHHHHHMEKILDLLMSFVKEDEGKLDLASFPLRNTTAGAHLLLKTENVVASGIEVSRMFLEKMGLLSKFNVEDGEYLEGTGVIGEIEGNTYKLLVAERTLLNVLSVMFSVATTTRRFAEKLKHAKIAATRKILPGLGVLQKIAVVHGGGDPHRLDLSGCVMIKDNHLKMYGSAERAVQEVRKIIPFTTKIEVEVENLEDALRAVEAGADIVMLDNLSPEEVKDISRRIKDINPNVIVEVSGGITEENVSLYDFETVDVISSSRLTLQEVFVDLSLEIQR
  soluble on expression in E. coli: soluble

## MDTTNQSEDIKPCDSDLMESILMFDEPISDILAHNKLWISHARTRSNFFPQEGRHISNQHTEAATSLKMWMLSKNLVVIVKRKDDIFPCKILTRNPENLFVARFLESGKEKHIQVEYSDIIMTRSELEKALPLCQHLIPARNWDDFYIIRDFEKATPYFEQGLSALVKPGQQFELQLEDAPDFYVMATVVKNYRGFLLVEYQNVSCVQKKTMPVFLFHFLMLFQFKRWIHMLSPYCHEIGWGKNEKQEYLKRGPYNRHMNVDLVAGLVKQSTNQKLGAVPEIVFRNNCPVPHRIPEYSACVYLDLDQKRFYFAHKVTTKTCRNNRHFFNISIGKNLVTSKQNNRPYEFHVYHPRILPYSVAKRMEVQIILPPDVKLLPDESNLDGYLRTYCNPCDKHKTSDRVQPSPKIAKKKNGPLLLDDTPDAMFRSRPLLGDNIGAHKEWTNFMNHIPDYKRKDLLKSMDTLKFCEIFRPTPTGALQLTAAEVTGQQECMLRLKVSGEDEPVYIHNADPHLYHLGACLDMELAINFHGEFFDEKPLKKNKNANNGFSSF
  soluble on expression in E. coli: not soluble

## GSSGSSGMPMTLGYWDIRGLAHAIRLFLEYTDSSYEEKRYTMGDAPDYDQSQWLNEKFKLGLDFPNLPYLIDGSHKITQSNAILRYLGRKHNLCGETEEERIRVDILENQLMDNRMVLARLCYNADFEKLKPGYLEQLPGMMRLYSEFLGKRPWFAGDKITFVDFIAYDVLERNQVFEAKCLDAFPNLKDFIARFEGLKKISDYMKTSRFLPRPMFTKMATWGSNSGPSSG
  soluble on expression in E. coli: soluble

## MRVVRPEFRPAPGLDTDAMASRQRDIAAVADFADDHGLTPERIGLDEPPGEQAALGGATTSGEAAPVVVGVDQAFRDDEVSVSAAVAIRDGAVIERAAGNAPLDVPYVPGLLAFREGSAVIDALSSLSVEPDLLVVDGSGRIHYRQAGLATHVGVLFDVPAVGVAKSLLCGTPAAALADPLPAGTRVAIEADDSMDAPDGAVVGYALQSRQYPTPETRHINPLYVSPGHRVSAGTAADLVEATCTQYKLPAPTRLADQYAADLT
  soluble on expression in E. coli: not soluble

## MGSDKIHHHHHHMKVVIISGGNSPSYTLIKKELRESEYLIAADSGANTLFKYDVFPDYIIGDLDSIKTVALNYYKNRKVSILQYPPEKDYTDTEIAVNKAIDLGATEIVLLGCTGSRIDHLFGNIGMLLKCLKLGVSCVIKDDNNTIFLTETSIKIRGSLGKTFSIIPYSEEISDLTIIGAKYPLNNYKMKIGSAIGISNVFEEEEVKVQFNSGKILIVYPTD
  soluble on expression in E. coli: not soluble

## MGSDKIHHHHHHMPVTHLAGALCHPTDCTLRASNSQHIATRFNEHSSVSHTRDLDRVQVAERWSRIKECNYVPVKVANTRADLGESLVWDERSGVLYFVDISGGRINGLTPDGEVDCLYESAARIGALALTDRGNLIFTEDASVAIFDVPTRKVSQHSASVHPRSTYRFNDGACDPQGRFVTGLMDEALSDNTGALFRFDWQLSDQVIHDDMGLPTGLAWSHDGHTVYFVDSAARAIYRAEYLIEGRLGAVTLFAETPAELGRPDGLALDREGGLWVCQYHGSCLLRYDRHGYLTDQVLMPVPCPTSCCFGGPGMNTLYISTARYDMTPEDLHHYPDAGDLYAIRPETGGVARHSFKE
  soluble on expression in E. coli: not soluble

## MRPESMTDGVPGSDSPAAAAAAASVTTSLHDLQVLVERGTLSGPEKQQADHLVTSLKRELVLRRVGDHLAERTFHELCVRLAVMERDWAAMERHIQQLMPLYELDRQAGIQSPHRDLLVGLNLMRLLAQNRLAEYHMELELLPTTEPQQNPYVLFPFQVEQALTEGSYQKILHIEAGAEWLPFIELLRETTIQEMVTSWAEAYAHVTLEELASMAALPVEQVPALLARVLDCTQYVVQNETVHFIASDHIREAPSQYLLAKEAVSRTMEYIRGLERIV
  soluble on expression in E. coli: soluble

## TMSHGFGVMAGINLTKNIGVQAEVNYYQINQKYADGNLNRDLTINYFNIPVLLSLNTNKAAPVNLNLVAGPQFGINAGSKFETSGNGNTDSTTAVVALRKGDVGVAYGAGLEFALNKSHSVRLDLGFRGFYGLVNMDSSTNGQGTYNVIVSASRKTYGGYAGITWMF
  soluble on expression in E. coli: not soluble

## MSLKILVIGPSWVGDMVMSQSLYQRLKQQHPDAQIDVLAPAWCKPILERMPEVNQAIEMTIGHGAFNLLGRRAIGCELRDNRYTHAIVLPNSAKSALIPWFANIPKRTGWKGEFRYGLLNDLRPDKRVFQYMVERYVALAHPKATMLADVSLEHCPRPKLVIDAIVQQAARQRLSLVSSRPVIGLCPGAEFGPAKRWPDHYYAEVARYAIEQGFQVWLFGSAKDHSVTTQIQQALSEEQREYCANLAGETSLIEAVDLLAACHTVVSNDSGLMHVSAAVGCNIVAIYGSSSPKYTPPLTDKLAVVHTEIECRPCFKRVCPLEHLNCLNQLKPAQVIKALDKFIGKDSEGHHHHHH
  soluble on expression in E. coli: soluble
